Data on 16 molecules can be found in article PMC10720262 (Cell Reports, 2023).

This assay addresses recombinant full-length PfCSP (Plasmodium falciparum circumsporozoite protein, strain NF54) (Plasmodium falciparum NF54, UniProt P19597).

recombinant full-length PfCSP (Plasmodium falciparum circumsporozoite protein, strain NF54), sequence (P19597 20-375): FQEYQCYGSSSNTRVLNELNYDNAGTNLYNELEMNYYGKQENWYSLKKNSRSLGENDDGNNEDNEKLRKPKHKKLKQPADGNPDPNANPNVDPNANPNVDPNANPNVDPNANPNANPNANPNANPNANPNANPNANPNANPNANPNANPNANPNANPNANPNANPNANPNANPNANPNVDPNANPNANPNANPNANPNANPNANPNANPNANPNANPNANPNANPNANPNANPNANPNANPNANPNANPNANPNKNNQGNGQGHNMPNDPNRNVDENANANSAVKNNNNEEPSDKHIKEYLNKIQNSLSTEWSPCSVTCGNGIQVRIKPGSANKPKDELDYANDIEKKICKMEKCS

B1: CL-462911 (antibody, V domains shown)
VH: QVHLVESGGGVVQPGRSLTLSCAASGFTFSSCGMHWVRQAPGKGLEWLAVIWYDGSNKYYADSVKGRFTISRDNSKNTLYLQMNSLRAEDTAVYYCARDGGYVRDYYYGMDVWGQGTTVTVSS
VL: not shown
Take B1: the binding result is reported as “binds”.

B2: CL-460619 (antibody, V domains shown)
VH: QVQLVESGGGVVQPGRSLRLSCAASGFTFDYYGMHWVRQAPGKGLEGVAIIWYDGSNKFYADSVKGRFTISRDNSKNTLYLQMTSLRVEDTAVYYCARDGRIGDPGPYFDYWGQGTLVTVSS
VL: EIVMTQSPATLSVSPGERPTLSCRASQSVSSKLAWYQQKPDQAPRLLIYGASTRATGIPPRFSGSGSGTEFTLTIDSLQSEDFAVYYCQQYHKWWTFGQGTKVEIK
As to B2, the binding result is listed as “binds”.

B3: CL-462788 (antibody, V domains shown)
VH: QVQLVESGGGVVQPGRSLRLSCAASGFTFRNYGMHWVRQAPGKGLEWVAIIWYDGSYKFYADSVKGRFTISRDNSKNTLYLQMNSLRAEDTAMYYCARDDALELRSFDIWGQGTMVTVSS
VL: DVVMTQSPLSLPVTLGQPASISCRSSQSLVYSDENTYLSWFQQRPGQSPRRLIYKISNRDSGVPDRFSGSGSGTDFTLKISRVEAEDVGVYYCMQGTHWPRTFGQGTEVEIK
B3: the binding result is “binds”.

B4: CL-464277 (antibody, V domains shown)
VH: QVQLVASGGGVVQPGRSLRLSCAVSGFTFRNYGMHWVRQDPGRGLEWVAIIWYDGSYKFYADSVKGRFTISRDNSKNTLYLQMNSLRAEDTAVYYCARSYGSLTGDQTKYGMDVWGQGTTVSVSS
VL: not shown
With B4, the binding result is given as “binds”.

B5: CL-508731 (antibody, V domains shown)
VH: QVQLVESGGGVVQPGRSLRLSCVASGFTFSNNGMHWVRQAPGKGLEWVAIIWHDGSNKFYAESVRGRFTISRDNSNNTLYLQMNSLRAEDTAVYYCARDRMFGSGSWNYFDPWGQGTLVTVSS
VL: EIVLTQSPATLSLSPGERATLSCRASQSISTYLAWYQQKPGQAPRLLIYDASNRATGIPARFSGSGSGTDFTLTISSLEPEDFAVYYCQQRSYWWTFGQGTKVEIK
For B5, the binding result is “binds”.

B6: CL-449869 (antibody, V domains shown)
VH: QVQLVESGGGAVQPGRSLRLSCAASGFTFSYNGMHWVRQAPGKGLEWVAIIWYDGSNKFYADSVKGRFTISRDNSKDTLYLEMNSLRAEDTAIYYCARAWNYDDKKYSMDVWGQGTTVTVSS
VL: DIQMTQSPSTLSASVGDRVTITCRASQSISSWLAWYQQKPGKAPKLLIYKASSLESGVPSRFSGSGSGTEFTLTISSLQPDDFATYYCQQYNYFWTFGQGTKVEIR
With B6, the binding result was “binds”.

B7: CL-464097 (antibody, V domains shown)
VH: QVQLVESGGGAVQPGRSLRLSCAASGFTFSYNGMHWVRQAPGKGLEWVAIIWYDGSNKYYAESVKGRFTISRDNSKDTLYLQMNSLRAEDTAIYYCVRAWNYEDKKYSMDVWGQGTTVTVSS
VL: DIQMTQSPSTLSASVGDRVTITCRASQSISSWLAWYQQKPGKAPKLLIYKASSLESGVPSRFSGSGSGTDFTLTISSLQPDDFATYYCQQYNYFWTFGQGTKVEIR
For B7, the binding result is listed as “binds”.

B8: CL-464181 (antibody, V domains shown)
VH: QVQLVESGGGAVQAGTSLRLSCAASGFSFSYNGMHWVRQGPGKGLEWVAIIWYDGGNKFYADSVKGRFTISRDNSKKMLYLQMNRLRAEDTAVYYCARAWNFADNKYSMDVWGQGTTVTVSA
VL: DIQMTQSPSTLSASVGDRVTITCRASQSISCWLAWYQQKPGKAPQLLIYKASSLESGVPSRFSGSGSGTEFTLTISSLQPDDFATYYCQQYYIYWTFGQGTKVDIK
With B8, the binding result is listed as “binds”.

B9: CL-460406 (antibody, V domains shown)
VH: QIQLVESGGGVVQPGRSLRLSCAASGFTFSNSGMHWIRQAPGKGLEWVTIIWYDGSNKYYADSVKGRFTISRDNSKNTLYLQMNSLRAEDTAIYYCARAYSSSSDDYYGMDVWGQGTTVTVSS
VL: DIQMTQSPSTLSASVGDRVTITCRASQSISSWLAWYQQKPGKAPKLLIYKASSLESGVPSRFSGSGSGTDFTLTISSLQPDDFATYYCQQFYNYWTFGQGTKVEIT
Turning to B9, the binding result was “binds”.

B10: CL-458015 (antibody, V domains shown)
VH: QVHLVESGGGVVQPGRSLRLSCAASGFTFSNYGMHWVRQAPGKGLDWVAIIWYDGSNKFYADSVQGRFTISRDNSKNTLYLQMNSLRAEDTAVYYCAKVQDLLGVPSTLGDHYTTDVWGQGTSVTVSS
VL: DIQMTQSPSTLSASVGDRITITCRASQSINDWLAWYQQKAGKAPKLLIYKASSLESGVPSRFSGSGSGTDFTLTISSLQTDDFAIYYCQQYNHYWTFGQGTKVEIK
For the molecule B10, the binding result was “binds”.

B11: CL-459404 (antibody, V domains shown)
VH: QVQLVASGGGVVQPGRSLRLSCAASGFTFSNYGMHWVRQAPGKGLEWVAIIWYDGSKKYYSDSVKGRFTISRDNSKNTLNLQMNSLRAEDTAVYYCARAYGSGSYSDDYYGMDVWGQGTTVTVSS
VL: DIQMTQSPSTLSASVGDRVTITCRASQSISPWLAWFQQKPGKAPKLLIYKASNLESGVPSRFSGSGSGTEFTLTISSLQPDDFATYYCQQYYTYWTFGQGTKVEIK
As to B11, the binding result is “binds”.

B12: CL-459075 (antibody, V domains shown)
VH: QVQLVASGGGVVQPGRSLRLSCAASGFTFSNYGMHWVRQAPGKGLEWVSIIWYDGSKKYYSDSVKGRFTISRDNSKNTLYLQMNSLRAEDTAVYYCARAYGSGSYSDDYYGMDVWGQGTTVTVSS
VL: DIQMTQSPSTLSASVGDRVTITCRASQSISTWLAWCQQKPGKAPKLLIYKASNLESGVPSRFSGSGSGTEFTLTISSLQPDDFATYYCQQYYSYWTFGQGTKVEIK
Regarding B12, the binding result is “binds”.

B13: CL-453181 (antibody, V domains shown)
VH: QVQLVESGGGVVQPGRSLRLSCAASGFTFSYYGMHWVRQAPGKGLEWVSIIWYDGSNKFYADSVKGRFTISRDNSKDTLYLEMNSLRAEDTAVYYCARVEFYNGSGRDFYYGLDVWGQGTTVTVSS
VL: EIVMTQSPATLSVSPGEGATLSCRASQSVSSNLAWYQQKPGQAPRLLISGASTRATGVPARFSGSGSGTEFALTISSLQSEDFAVYYCQQYSKLWTFGQGTKVEIK
As to B13, the binding result was “binds”.

B14: CL-460506 (antibody, V domains shown)
VH: QVQLVESGGGVVQPGRSLRLSCAASGFTFSNYGMHWVRQAPGKGLEWMAIIWYDGSNKYYADSVKGRFTISRDNSMNTLYLQMNSLRPEDTALYYCARAFYYGSGTLDYWGQGTLVTVSS
VL: EIVLTQSPATLSVSPGERATLSCRASQSVSSHLAWYQQKFGQAPRLLIYGASNRATGIPARFSGSGSGTEFTLTISILQSEDFAVYYCQQYNNWFTFGPGTKIDIK
In the case of B14, the binding result is on record as “binds”.

B15: CL-450034 (antibody, V domains shown)
VH: QVQLVESGGGAVQAGTSLRLSCAASGFTFSYNGMHWVRQGPGKGLEWVAIIWYDGGNKFYADSVKGRFTISRDNSKNMLYLQMNRLRAEDTAVYYCARAWNYADSKYSMDVWGQGTTVTVSS
VL: not shown
On to B15, for which the binding result is on record as “binds”.

B16: CL-460369 (antibody, V domains shown)
VH: QVQLVESGGGVVQPGRSLRLSCAASGFTFSNYGMHWVRQAPGKGLEWVGIIWYDGSNKYYIDSVKGRFTISRDNSRNTLYLQINSLRAEDTAVYYCARDGGWNDDYYYVMDVWGQGTTVTVSS
VL: DIVMTQSPDSLAVSLGEGATINCKSSQSVLYSSNNKNYLAWYQQKPGQPPKVLIYWASIRESGVPDRFSGSGSGTDFTLTISSLQAEDVAVYYCQQYYSMCSFGQGTKLEIK
On to B16, for which the binding result is given as “binds”.
